Source: PMC4482598

Biological target: ryanodine receptor type 1 (RyR1), endogenous in mouse myotubes (mouse (endogenous in mouse myotubes)) (UniProt E9PZQ0)
UniProt E9PZQ0, sequence (E9PZQ0 whole entry): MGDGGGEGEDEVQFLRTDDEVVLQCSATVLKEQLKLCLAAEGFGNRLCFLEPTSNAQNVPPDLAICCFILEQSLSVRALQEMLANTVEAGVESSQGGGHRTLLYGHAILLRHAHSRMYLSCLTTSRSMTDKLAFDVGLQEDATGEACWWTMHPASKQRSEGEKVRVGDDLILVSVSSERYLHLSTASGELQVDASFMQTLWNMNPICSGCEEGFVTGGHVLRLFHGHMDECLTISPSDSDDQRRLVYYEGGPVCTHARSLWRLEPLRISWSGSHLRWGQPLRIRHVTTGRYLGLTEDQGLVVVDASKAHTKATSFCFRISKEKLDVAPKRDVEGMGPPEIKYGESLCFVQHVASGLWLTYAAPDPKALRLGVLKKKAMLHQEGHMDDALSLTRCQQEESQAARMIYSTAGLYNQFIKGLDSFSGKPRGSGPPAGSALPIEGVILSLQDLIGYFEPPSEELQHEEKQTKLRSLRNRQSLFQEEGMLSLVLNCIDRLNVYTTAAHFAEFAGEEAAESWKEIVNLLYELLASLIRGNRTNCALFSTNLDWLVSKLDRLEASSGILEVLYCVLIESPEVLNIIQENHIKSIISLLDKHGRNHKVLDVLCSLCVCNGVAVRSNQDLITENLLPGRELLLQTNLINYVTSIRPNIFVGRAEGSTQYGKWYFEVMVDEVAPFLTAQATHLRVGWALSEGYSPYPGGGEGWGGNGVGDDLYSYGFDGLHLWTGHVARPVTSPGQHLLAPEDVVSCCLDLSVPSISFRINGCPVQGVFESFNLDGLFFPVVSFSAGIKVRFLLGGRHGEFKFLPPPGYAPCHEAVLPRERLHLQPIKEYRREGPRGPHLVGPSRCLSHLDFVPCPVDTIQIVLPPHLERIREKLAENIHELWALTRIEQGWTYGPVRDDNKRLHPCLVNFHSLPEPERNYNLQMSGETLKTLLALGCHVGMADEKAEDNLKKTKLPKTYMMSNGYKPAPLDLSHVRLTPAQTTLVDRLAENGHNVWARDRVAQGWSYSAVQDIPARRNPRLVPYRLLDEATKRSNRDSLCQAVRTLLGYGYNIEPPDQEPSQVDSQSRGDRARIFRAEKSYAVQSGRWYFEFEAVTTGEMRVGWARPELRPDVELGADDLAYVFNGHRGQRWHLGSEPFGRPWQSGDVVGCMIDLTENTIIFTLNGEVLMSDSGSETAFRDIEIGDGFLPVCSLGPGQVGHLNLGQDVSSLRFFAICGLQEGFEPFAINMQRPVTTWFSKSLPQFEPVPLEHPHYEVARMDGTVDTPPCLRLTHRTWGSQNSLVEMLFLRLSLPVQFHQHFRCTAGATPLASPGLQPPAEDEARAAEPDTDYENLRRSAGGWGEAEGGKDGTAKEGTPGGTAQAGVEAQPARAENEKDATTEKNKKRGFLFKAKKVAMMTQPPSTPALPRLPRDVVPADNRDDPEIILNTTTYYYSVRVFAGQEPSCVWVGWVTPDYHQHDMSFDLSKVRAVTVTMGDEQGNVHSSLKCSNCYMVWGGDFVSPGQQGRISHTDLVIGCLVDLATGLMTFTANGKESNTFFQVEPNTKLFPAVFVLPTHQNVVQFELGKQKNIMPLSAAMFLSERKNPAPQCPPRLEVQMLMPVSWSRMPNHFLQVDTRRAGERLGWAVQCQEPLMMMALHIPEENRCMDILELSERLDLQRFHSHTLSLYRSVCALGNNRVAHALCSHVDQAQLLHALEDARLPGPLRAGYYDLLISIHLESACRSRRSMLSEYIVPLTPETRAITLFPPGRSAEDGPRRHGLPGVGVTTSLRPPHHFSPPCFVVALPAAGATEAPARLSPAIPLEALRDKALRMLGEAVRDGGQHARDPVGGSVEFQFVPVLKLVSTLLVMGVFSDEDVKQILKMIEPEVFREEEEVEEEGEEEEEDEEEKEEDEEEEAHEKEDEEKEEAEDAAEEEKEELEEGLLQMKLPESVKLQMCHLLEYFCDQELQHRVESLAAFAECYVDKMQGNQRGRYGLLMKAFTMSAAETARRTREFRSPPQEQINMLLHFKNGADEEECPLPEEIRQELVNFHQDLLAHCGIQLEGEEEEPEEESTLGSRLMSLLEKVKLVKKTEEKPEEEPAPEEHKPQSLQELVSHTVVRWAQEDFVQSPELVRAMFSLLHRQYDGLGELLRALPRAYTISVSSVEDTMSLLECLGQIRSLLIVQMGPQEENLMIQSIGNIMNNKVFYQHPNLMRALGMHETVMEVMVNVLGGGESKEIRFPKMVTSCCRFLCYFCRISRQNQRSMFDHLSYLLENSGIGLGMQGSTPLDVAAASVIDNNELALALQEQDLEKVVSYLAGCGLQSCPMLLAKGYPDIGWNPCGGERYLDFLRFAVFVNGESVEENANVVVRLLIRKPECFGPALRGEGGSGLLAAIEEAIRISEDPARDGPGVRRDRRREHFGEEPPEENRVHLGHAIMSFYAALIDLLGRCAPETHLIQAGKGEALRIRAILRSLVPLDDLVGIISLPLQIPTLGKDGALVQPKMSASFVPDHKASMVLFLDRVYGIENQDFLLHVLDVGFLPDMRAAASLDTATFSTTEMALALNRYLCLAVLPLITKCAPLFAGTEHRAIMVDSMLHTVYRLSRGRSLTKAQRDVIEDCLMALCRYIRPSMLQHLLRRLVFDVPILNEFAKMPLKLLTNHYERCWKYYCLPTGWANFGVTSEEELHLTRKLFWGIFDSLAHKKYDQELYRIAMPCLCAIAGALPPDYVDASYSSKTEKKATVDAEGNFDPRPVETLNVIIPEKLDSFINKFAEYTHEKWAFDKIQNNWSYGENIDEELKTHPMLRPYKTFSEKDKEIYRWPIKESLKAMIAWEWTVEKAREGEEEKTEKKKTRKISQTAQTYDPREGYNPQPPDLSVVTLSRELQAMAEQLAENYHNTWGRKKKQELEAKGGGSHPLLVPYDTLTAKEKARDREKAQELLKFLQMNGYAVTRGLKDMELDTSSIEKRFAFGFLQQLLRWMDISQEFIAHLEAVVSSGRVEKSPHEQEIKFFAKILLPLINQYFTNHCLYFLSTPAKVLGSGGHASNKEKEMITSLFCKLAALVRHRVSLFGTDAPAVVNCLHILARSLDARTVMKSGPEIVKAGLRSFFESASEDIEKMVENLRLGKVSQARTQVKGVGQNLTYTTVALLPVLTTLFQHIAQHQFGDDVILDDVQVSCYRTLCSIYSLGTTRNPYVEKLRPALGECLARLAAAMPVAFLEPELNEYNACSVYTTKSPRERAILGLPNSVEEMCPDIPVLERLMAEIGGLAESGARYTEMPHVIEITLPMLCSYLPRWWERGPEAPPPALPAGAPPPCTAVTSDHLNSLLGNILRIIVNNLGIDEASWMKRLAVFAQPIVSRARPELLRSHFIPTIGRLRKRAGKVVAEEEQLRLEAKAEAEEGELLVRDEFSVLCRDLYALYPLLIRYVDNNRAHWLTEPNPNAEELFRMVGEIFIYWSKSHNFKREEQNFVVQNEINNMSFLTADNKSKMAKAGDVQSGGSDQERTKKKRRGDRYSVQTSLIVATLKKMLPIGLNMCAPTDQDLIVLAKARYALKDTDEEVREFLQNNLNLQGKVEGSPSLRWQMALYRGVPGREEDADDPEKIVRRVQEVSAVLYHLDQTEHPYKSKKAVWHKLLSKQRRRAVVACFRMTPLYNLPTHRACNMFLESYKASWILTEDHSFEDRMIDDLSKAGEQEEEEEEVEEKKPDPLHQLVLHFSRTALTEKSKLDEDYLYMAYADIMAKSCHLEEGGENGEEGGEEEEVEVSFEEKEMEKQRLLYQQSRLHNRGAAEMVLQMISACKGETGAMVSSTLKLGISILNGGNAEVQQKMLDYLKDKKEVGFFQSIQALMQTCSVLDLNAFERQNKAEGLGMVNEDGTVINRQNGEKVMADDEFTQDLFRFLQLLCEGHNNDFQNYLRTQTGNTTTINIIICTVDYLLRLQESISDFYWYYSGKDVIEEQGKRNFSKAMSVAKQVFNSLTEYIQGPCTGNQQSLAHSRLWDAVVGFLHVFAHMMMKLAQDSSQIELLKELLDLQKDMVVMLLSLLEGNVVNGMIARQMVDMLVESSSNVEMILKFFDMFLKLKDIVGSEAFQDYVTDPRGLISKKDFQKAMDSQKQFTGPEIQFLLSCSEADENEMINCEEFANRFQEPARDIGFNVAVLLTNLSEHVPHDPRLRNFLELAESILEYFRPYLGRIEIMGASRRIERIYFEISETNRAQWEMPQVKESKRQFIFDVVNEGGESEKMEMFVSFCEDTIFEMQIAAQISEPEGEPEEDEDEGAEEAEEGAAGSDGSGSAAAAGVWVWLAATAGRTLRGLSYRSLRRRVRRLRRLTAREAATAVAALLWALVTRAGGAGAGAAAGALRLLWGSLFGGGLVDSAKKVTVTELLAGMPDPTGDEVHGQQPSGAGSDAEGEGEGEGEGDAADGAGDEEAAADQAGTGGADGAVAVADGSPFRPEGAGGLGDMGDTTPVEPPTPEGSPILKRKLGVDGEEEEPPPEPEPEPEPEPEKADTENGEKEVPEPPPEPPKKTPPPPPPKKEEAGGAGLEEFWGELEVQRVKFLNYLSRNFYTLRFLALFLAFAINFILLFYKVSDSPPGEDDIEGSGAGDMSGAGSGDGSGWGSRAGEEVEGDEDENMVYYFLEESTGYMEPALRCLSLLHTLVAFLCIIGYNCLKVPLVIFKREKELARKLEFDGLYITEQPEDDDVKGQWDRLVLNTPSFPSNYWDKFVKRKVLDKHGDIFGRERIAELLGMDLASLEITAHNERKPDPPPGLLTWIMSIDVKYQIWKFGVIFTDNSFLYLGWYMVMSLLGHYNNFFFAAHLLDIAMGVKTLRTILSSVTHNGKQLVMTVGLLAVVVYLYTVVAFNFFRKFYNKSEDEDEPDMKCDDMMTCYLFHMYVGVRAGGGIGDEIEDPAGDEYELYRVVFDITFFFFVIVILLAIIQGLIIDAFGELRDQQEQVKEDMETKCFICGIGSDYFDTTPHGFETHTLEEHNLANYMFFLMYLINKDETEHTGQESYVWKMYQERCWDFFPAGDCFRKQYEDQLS

H458 CCPGCC ß1a-CFP (construct 21) (natural protein)
intramolecular FRET efficiency (C-terminal CFP to FlAsH at H458) of construct 21 in ß1 KO myotubes (control without native ß1 subunits): 0.12
